Experimental findings from patent US11230591 are described below.

B1: 3-7 (antibody, V domains shown)
VH: QVQLVQSGAEVKKPGASVKVSCKTSGYTFNTYAISWVRQAPGQGLEWVGWINTYSGSTKYAQKVQGRVTMTTDTSTSTAYMELRGLRSDDTAVYYCARDGYNWGFLDFWGQGSLVTVSS
VL: DIQMTQSPSSLSASVGDRVTITCRASQGISNYLAWYQQKPGKLPKLLIYAASTLQSGVPSRFSGSGSGTDFTLTISSLQPEDVASYYCQKYNSAPLTFGPGTKVDIK
B2: 1-125 (antibody, V domains shown)
VH: QVQLVESGGGLVKPGGSLRLSCAPAGFNFKDYYMTWIRQAPGKGLEWVSFISSSGQTIYYADSVKGRFTISRDNARNSLYLQMNSLRAEDTAVYYCARDSYSKLVDIVAIEAFDLWGQGTLVSVSS
VL: SYELTQPPSVSVAPGKMARITCGGDNIGSKSVHWYQQRPGQAPVLVIRFDTDRPSRIPERFSGSNSGNTATLAISRVEAGDEADYYCQVWDSSSARLVFGGGTKLTVL
B3: 1-15 (antibody, V domains shown)
VH: QVQLVASGGGLVKPGGSLRLSCAASEFTFSDYYMTWIRQAPGKGLEWVSYISSSGTTIYYADSVKGRFTVSRDNAKNSLFLQMNSLRAEDTALYYCARDSYSKLVDIEAIEAFDIWGQGTMVTVSS
VL: SYELTQPPSVSVGPGRTARITCGANNIGSKSVHWYQQRPGQAPVLVISFDTDRPSGIPERFSGSNSGNTATLTISRVEAGDEADYFCQVWDRTSDHVVFGGGTKLTVL
B4: 1-64 (antibody, V domains shown)
VH: B3 VH with E26G
VL: B3 VL
B5: 1-32 (antibody, V domains shown)
VH: QVKLVESGGGVVQPGRSLRLSCAGSGFAFDNYAMHWVRQAPGKGLEWVAVISLEGRNKYYAGPAKGRFSISRDNSRNTVHLQMNSLRPEDTAVYFCARDMRYYYDSNGHYRNRYGMDVWGQGTTVIVSS
VL: DIQMTQSPSSLSASVGDSVTITCQASQDINQFVSWYQQKPGKPPKLLIYDASNLESGVPSRFSGSGSGTHFTFTISSLQPDDIATYYCQQYENLFTFGPGTKVDIK
B6: 2-25 (antibody, V domains shown)
VH: QVQLVESGAEVKKPGALVKVSCKASGYTFTNYAIHWVRQASGQRLEWMGWINAGRGNTKYSQKFQGRVTITRDTSASTAYMELSSLRSEDAAVYFCARDESTGDYYYYMDVWGKGTTVTVSS
VL: SYELTQPPSVSVSPGQTASITCSGDRLDDKYASWYQQKAGQSPVLVIYQDNKRPSGIPERFSGSNSGNTATLTISGTQAMDEADYYCQAWDSDTYVFGTGTKVTVL
B7: 1-85 (antibody, V domains shown)
VH: QVHLVESGGGLVKPGRSLRLSCAASGFTFSDYYMAWIRQVPGKGLEWVSFISSSGRTIYYADSVKGRFTISRDNAKDSLYLQMHSLRAEDTAVYYCARDSYSKLVDIEAIEAFDIWGRGTMVTVSS
VL: SYELAQPPSVSVAPGKTATIACGGDNIGGKSVHWYLQKAGQAPVLVISYDSDRPSGIPERFSGSNSGNTATLTISRVEAGDEADYFCQVWDRHGDHVVFGGGTKLTVL
B8: 1-175 (antibody, V domains shown)
VH: QVHLVESGGGLVKPGGSLRLSCAASGFTFSDYYMAWIRRAPGKGLEWISFISGSGRTLYHAESVKGRFTVSRDNAKDSLYLHMHSLRDADTAVYYCARDSYSKLVEIEAIEAFDVWGRGTVVTVSS
VL: B7 VL with T17P, T19R, I47M, A83G, H93Q, G94T
B9: 1-150 (antibody, V domains shown)
VH: QVQLVESGGGLVKPGGSLRLSCAASGFSFSAYYMSWIRQAPGKGLEWISYISSSGNTIYYTDSVKGRFTIARDNAKNSLYLQMNSLRAEDTGLYYCARDSYSKLADIEATEAFDVWGQGTMVAVSS
VL: SYELTQPPSVSVAPGKTARITCGGNNIGSKSVHWYQQKPGQAPVMVIYYDSDRPSGIPERFSGSNSGNTATLTISRVEAGDEADYYCQVWDSGSDRVVFGGGTKLTVL

Numbering of substitutions follows the chain as printed.

Chain of recombinant pentameric gH complex (Towne strain) (human cytomegalovirus, Towne strain) (P17176 30-715, one chain of several): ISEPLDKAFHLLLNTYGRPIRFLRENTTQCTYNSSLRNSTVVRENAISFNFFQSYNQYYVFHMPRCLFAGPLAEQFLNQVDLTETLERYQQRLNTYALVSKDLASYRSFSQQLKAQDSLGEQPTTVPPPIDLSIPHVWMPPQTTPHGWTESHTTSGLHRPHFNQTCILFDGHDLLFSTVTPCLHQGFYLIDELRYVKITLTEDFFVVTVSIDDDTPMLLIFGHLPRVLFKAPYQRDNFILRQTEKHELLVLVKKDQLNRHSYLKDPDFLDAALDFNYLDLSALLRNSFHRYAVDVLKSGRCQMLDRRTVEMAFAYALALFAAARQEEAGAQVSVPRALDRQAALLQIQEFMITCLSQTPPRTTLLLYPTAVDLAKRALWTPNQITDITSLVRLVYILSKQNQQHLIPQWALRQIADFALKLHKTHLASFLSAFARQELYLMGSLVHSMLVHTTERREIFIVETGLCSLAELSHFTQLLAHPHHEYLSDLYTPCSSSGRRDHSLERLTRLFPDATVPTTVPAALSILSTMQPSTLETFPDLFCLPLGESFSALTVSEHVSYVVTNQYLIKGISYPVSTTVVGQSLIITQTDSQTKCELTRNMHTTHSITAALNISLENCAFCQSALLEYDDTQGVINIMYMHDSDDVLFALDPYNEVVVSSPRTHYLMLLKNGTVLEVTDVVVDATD

One experiment deals with CMV virions. Briefly: virion ELISA. (In an ELISA, binding on a coated surface is turned into a signal by an enzyme label.)
The term EC50 denotes the concentration that produces a half-maximal response. High values mean a less potent agent, low ones a more potent agent. Take B1: the EC50 was 70 ng/mL.
Same read-out and setting: to B2 belongs 1400 ng/mL.

The next experiment addresses pentameric gH complex on infectious CMV (neutralization assays) (human cytomegalovirus). Briefly: cell-based or functional assay.
As to B1, the EC50 Neutralizing stood at 80 ng/mL, the IC50 in ARPE-19 is 9.5 ng/mL and the IC50 in MRC-5 came out at 19 ng/mL.
Molecule B3 gave an EC50 Neutralizing of 0.9 ng/mL.
On the same count and under the same terms, for B4 the value was 1 ng/mL.
In turn, B5 showed an EC50 Neutralizing of 20 ng/mL and an IC50 in ARPE-19 of 0.82 ng/mL.
The molecule B2 had an EC50 Neutralizing of 0.9 ng/mL.
As to B6, the EC50 Neutralizing was 0.09 ng/mL and the IC50 in ARPE-19 worked out at 0.08 ng/mL.
In the same order, the values of B7 are 0.9 ng/mL and 0.13 ng/mL.
For the molecule B8, the EC50 Neutralizing was 1 ng/mL.
On to B9, for which the EC50 Neutralizing worked out at 1 ng/mL, the IC50 in ARPE-19 worked out at 0.31 ng/mL and the IC50 in MRC-5 is 260 ng/mL.

Another experiment has as its target recombinant pentameric gH complex (Towne strain) (human cytomegalovirus, Towne strain) (UniProt P17176). Briefly: BLI competition on His-pentamer; competitor (antibody 2): 3-7.
In the case of B1, the Pair-wise inhibition (%) stood at 91%.
Same read-out and setting: to B5 belongs 8%; to B6, 9%.
The same measure, in the same setting: for B7 the value was 27%; for B9, 0%.

Another experiment shares this target. Briefly: BLI competition on His-pentamer; competitor (antibody 2): 1-32.
Consider B1, for which the Pair-wise inhibition (%) was 10%.
Same read-out and setting: for B5 the value was 91%; for B6, 2%; for B7, 16%.
As for B9, the Pair-wise inhibition (%) was -11%.

The next experiment has the same target. Briefly: BLI competition on His-pentamer; competitor (antibody 2): 1-85.
For B1, the Pair-wise inhibition (%) is 35%.
The same measure, in the same setting: for B5 the value was 18%.
For B6, the Pair-wise inhibition (%) was 7%.
On the same count and under the same terms, for B7 the value was 87%; for B9, 61%.

For a further experiment the target is unchanged. Briefly: BLI competition on His-pentamer; competitor (antibody 2): 2-18.
With B1, the Pair-wise inhibition (%) stood at 51%.
Take B5: the Pair-wise inhibition (%) is -1%.
Still for that read-out and setting: to B6 belongs 87%; to B7, 14%.
The same measure, in the same setting: to B9 belongs -10%.

The target is the same in another experiment. Put plainly: BLI competition on His-pentamer; competitor (antibody 2): 2-25.
In the case of B1, the Pair-wise inhibition (%) stood at 44%.
Same read-out and setting: to B5 belongs -33%.
Still for that read-out and setting: to B6 belongs 104%; to B7, -4%.
Still for that read-out and setting: for B9 the value was -22%.

The target is the same in the next experiment. Put plainly: BLI competition on His-pentamer; competitor (antibody 2): 3-15.
Consider B1, for which the Pair-wise inhibition (%) was 102%.
On the same count and under the same terms, for B5 the value was 7%; for B6, 10%.
On the same count and under the same terms, to B7 belongs 33%.
For B9, the Pair-wise inhibition (%) stood at 6%.

For the next experiment the target is unchanged. Put plainly: BLI competition on His-pentamer; competitor (antibody 2): 3-16.
As for B1, the Pair-wise inhibition (%) was determined as 97%.
B5: the Pair-wise inhibition (%) was 10%.
On the same count and under the same terms, for B6 the value was 6%; for B7, 37%; for B9, 2%.

For another experiment the target is unchanged. Briefly: BLI competition on His-pentamer; competitor (antibody 2): 57.4.
With B1, the Pair-wise inhibition (%) came out at 20%.
Consider B5, for which the Pair-wise inhibition (%) worked out at 57%.
On to B6, for which the Pair-wise inhibition (%) amounted to 15%.
On the same count and under the same terms, for B7 the value was 29%; for B9, -19%.

The target is the same in the next experiment. Put plainly: BLI competition on His-pentamer; competitor (antibody 2): 70.7.
Consider B1, for which the Pair-wise inhibition (%) was 38%.
For the molecule B5, the Pair-wise inhibition (%) worked out at 87%.
Same read-out and setting: for B6 the value was 29%; for B7, 36%.
Take B9: the Pair-wise inhibition (%) is -32%.

The target is the same in the next experiment. Put plainly: BLI competition on His-pentamer; competitor (antibody 2): 1-103.
Consider B1, for which the Pair-wise inhibition (%) is 27%.
B5: the Pair-wise inhibition (%) turned out to be 15%.
The same measure, in the same setting: for B6 the value was -4%.
The same measure, in the same setting: to B7 belongs 27%; to B9, 26%.

A further experiment has the same target. Put plainly: BLI competition on His-pentamer; competitor (antibody 2): 1-150.
For B1, the Pair-wise inhibition (%) was -6%.
Still for that read-out and setting: for B5 the value was 4%.
On the same count and under the same terms, to B6 belongs -17%.
On the same count and under the same terms, for B7 the value was 117%; for B9, 104%.

The target is the same in another experiment. Put plainly: BLI competition on His-pentamer; competitor (antibody 2): 124.4.
Regarding B1, the Pair-wise inhibition (%) is 35%.
Same read-out and setting: to B5 belongs 7%; to B6, 1%; to B7, 24%.
B9: the Pair-wise inhibition (%) is -22%.

Another experiment has the same target. Briefly: BLI competition on His-pentamer; competitor (antibody 2): 270.7.
Turning to B1, the Pair-wise inhibition (%) stood at 16%.
On the same count and under the same terms, to B5 belongs 97%.
Same read-out and setting: for B6 the value was -10%; for B7, 27%.
Same read-out and setting: for B9 the value was -29%.

The target is the same in a further experiment. Put plainly: BLI competition on His-pentamer; competitor (antibody 2): 276.1.
On to B1, for which the Pair-wise inhibition (%) worked out at 12%.
Take B5: the Pair-wise inhibition (%) was -11%.
As for B6, the Pair-wise inhibition (%) was -25%.
On the same count and under the same terms, to B7 belongs -2%.
Consider B9, for which the Pair-wise inhibition (%) is -12%.

A further experiment shares this target. Put plainly: BLI competition on His-pentamer; competitor (antibody 2): 316.2.
On to B1, for which the Pair-wise inhibition (%) came out at 21%.
On the same count and under the same terms, for B5 the value was 78%.
On the same count and under the same terms, to B6 belongs -1%; to B7, 29%.
Still for that read-out and setting: for B9 the value was -22%.

Another experiment has the same target. Put plainly: BLI competition on His-pentamer; competitor (antibody 2): 324.4.
On to B1, for which the Pair-wise inhibition (%) came out at 14%.
The same measure, in the same setting: for B5 the value was 6%; for B6, -4%; for B7, 17%.
On the same count and under the same terms, to B9 belongs -12%.
